How the values were obtained:
Test in all cases: peptide or protein array; PEPperCHIP microarray of 15 amino acid peptides with 10 amino acid overlap, immobilised; survivin at 1 μg/ml (53.5 nM monomer) in incubation buffer; stained with 6x His Tag Antibody DyLight680; LI-COR Odyssey read-out
[1] = target: microarray peptides covering SUZ12 573–597 (human)
[2] = target: microarray peptides covering JARID2 170–194 (human)
[3] = target: microarray peptides covering EED 128–152 (human)
[4] = target: microarray peptides covering EZH2 172–211 (human)
[5] = scale: % of maximum fluorescence intensity units

Sequence of survivin (His-tagged, from pHIS8) (O15392 whole entry): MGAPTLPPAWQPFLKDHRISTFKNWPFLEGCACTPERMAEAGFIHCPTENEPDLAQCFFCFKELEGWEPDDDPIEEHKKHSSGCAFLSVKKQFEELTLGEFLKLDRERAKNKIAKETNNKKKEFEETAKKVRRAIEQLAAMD

Substance: survivin (His-tagged, from pHIS8) (from UniProt O15392 1-142) (natural protein)
- Integrated FI (units of the maximum FI per peptide) [1]: 0.6
- Average FI (%) [1, 5]: 20
- Integrated FI (units of the maximum FI per peptide) [2]: 3
- Average FI (%) [2, 5]: 100
- Integrated FI (units of the maximum FI per peptide) [3]: 0.31
- Average FI (%) [3, 5]: 10
- Integrated FI (units of the maximum FI per peptide) [4]: 4.28
- Average FI (%) [4, 5]: 71

Reference: article PMC10391610, “Survivin prevents the polycomb repressor complex 2 from methylating histone 3 lysine 27” (iScience, 2023)
